The stoichiometry N is the number of molecules, sites or subunits per partner or assembly.

Data set [1] concerns the target HsmtSSBΔN, deletion variant lacking the first 9 residues in the N-terminus of mature HsmtSSB (human). Kind of data set: SEC + other: glycerol gradient velocity sedimentation; 12-30% glycerol gradients, 264,000 x g, 63 hr, 4°C, 35 mM Tris-HCl pH 7.5, 100 mM NaCl, 2 mM EDTA, 5 mM DTT; Superdex 75 gel filtration in the same buffer with 8% glycerol, 4°C; native mass calculated from the S value and the Stokes radius.

Data set [2] deals with T1, HsmtSSBwt (mature human mitochondrial SSB) (Homo sapiens, UniProt Q04837 17-148).
T1 sequence: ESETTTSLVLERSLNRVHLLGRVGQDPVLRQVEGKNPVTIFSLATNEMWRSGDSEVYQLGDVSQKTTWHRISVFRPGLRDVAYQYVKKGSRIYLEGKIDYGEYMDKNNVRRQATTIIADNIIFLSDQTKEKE
The experiment in a line: EMSA; 50 mM NaCl, 4 mM Mg2+; apparent Kd, protein as tetramer; 20 mM Tris-HCl pH 7.5, 1 mM DTT, 4 mM MgCl2, 50 mM NaCl, 36 fmol 48-mer in 20 µL, 20°C 10 min; 6% native PAGE. The following applies: protein: recombinant; tags: none (untagged); chain copies: 4; label: 5'-32P; single strand. (A gel shift assay detects complexes by their altered migration in electrophoresis.)

Data set [3] addresses T2, HsmtSSBΔC (Homo sapiens, UniProt Q04837 =M+17-141, internal_change).
T2 sequence: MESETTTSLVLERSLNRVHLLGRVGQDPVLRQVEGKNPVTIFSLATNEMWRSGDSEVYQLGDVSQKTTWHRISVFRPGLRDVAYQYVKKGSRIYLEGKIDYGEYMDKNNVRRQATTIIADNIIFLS
The description is as above. The following applies: protein: recombinant; tags: none (untagged); chain copies: 4; label: 5'-32P; single strand.

Data set [4] addresses T3, HsmtSSBΔN (Homo sapiens, UniProt Q04837 =M+26-148, internal_change).
T3 sequence: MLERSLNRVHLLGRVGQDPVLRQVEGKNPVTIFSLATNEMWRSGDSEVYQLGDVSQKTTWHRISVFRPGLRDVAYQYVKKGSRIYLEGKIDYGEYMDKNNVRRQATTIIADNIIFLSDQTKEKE
Described as above. The following applies: protein: recombinant; tags: none (untagged); chain copies: 4; label: 5'-32P; single strand.

Data set [5] addresses T4, HsmtSSBΔNΔC (Homo sapiens, UniProt Q04837 =M+26-141, internal_change).
T4 sequence: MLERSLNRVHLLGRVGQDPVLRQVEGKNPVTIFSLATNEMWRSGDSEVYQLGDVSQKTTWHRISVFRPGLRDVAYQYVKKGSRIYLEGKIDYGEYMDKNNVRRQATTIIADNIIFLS
Described as above. The following applies: protein: recombinant; tags: none (untagged); chain copies: 4; label: 5'-32P; single strand.

Data set [6] deals with the molecule itself. The experiment in a line: SEC + other: glycerol gradient velocity sedimentation; 12-30% glycerol gradients, 264,000 x g, 63 hr, 4°C, 35 mM Tris-HCl pH 7.5, 100 mM NaCl, 2 mM EDTA, 5 mM DTT; Superdex 75 gel filtration in the same buffer with 8% glycerol, 4°C; native mass calculated from the S value and the Stokes radius.

Take “HsmtSSBΔN, deletion variant lacking the first 9 residues in the N-terminus of mature HsmtSSB (domain or fragment)”: in data set [1], the stoichiometry N was 4.

B1: 48-mer ssDNA oligonucleotide (ssDNA)
DNA: GGACTATTTATTAAATATATTTAAGAACTAATTCCAGCTGAGCGCCGG
On to B1, for which the Kd in data set [2], in data set [3], in data set [4] and in data set [5] was about 5 nM throughout.

B2: human mitochondrial single-stranded DNA-binding protein, mature wild type (HsmtSSBwt) (natural protein, UniProt Q04837 17-148, looked up)
chain: ESETTTSLVLERSLNRVHLLGRVGQDPVLRQVEGKNPVTIFSLATNEMWRSGDSEVYQLGDVSQKTTWHRISVFRPGLRDVAYQYVKKGSRIYLEGKIDYGEYMDKNNVRRQATTIIADNIIFLSDQTKEKE
notes: numbers count on: the mature protein; Untagged; The forward primer (CATATG GAGTCC...) puts a start methionine before the first mature residue; also called human mtSSB; source: E. coli BL21(DE3), pET-11a, untagged, purified (Blue Sepharose, phosphocellulose)
For the molecule B2, the “stoichiometry N” value in data set [6] is 4.

B3: HsmtSSBΔNΔC, variant of HsmtSSB that lacks both termini (first 9 and last 7 residues of the mature protein) (domain or fragment, human, UniProt Q04837 26-141, looked up)
chain: LERSLNRVHLLGRVGQDPVLRQVEGKNPVTIFSLATNEMWRSGDSEVYQLGDVSQKTTWHRISVFRPGLRDVAYQYVKKGSRIYLEGKIDYGEYMDKNNVRRQATTIIADNIIFLS
notes: human mtSSB, mature protein lacking its first 9 and its last 7 residues; numbers count on: the mature protein; Untagged; Made with the forward primer of ΔN (new start methionine before L-E-R-S) and the reverse primer of ΔC (stop after ...F-L-S); source: E. coli BL21(DE3), pET-11a, untagged, purified (Blue Sepharose, phosphocellulose)
Turning to B3, the “stoichiometry N” value in data set [6] was 4.

B4: HsmtSSBΔC, deletion variant lacking the last 7 residues in the C-terminus of HsmtSSB (domain or fragment, human, UniProt Q04837 17-141, looked up)
chain: ESETTTSLVLERSLNRVHLLGRVGQDPVLRQVEGKNPVTIFSLATNEMWRSGDSEVYQLGDVSQKTTWHRISVFRPGLRDVAYQYVKKGSRIYLEGKIDYGEYMDKNNVRRQATTIIADNIIFLS
notes: human mtSSB, mature protein lacking its last 7 residues; numbers count on: the mature protein; Untagged; The reverse primer puts a new stop codon after codons that read ...D-N-I-I-F-L-S. A start methionine precedes the first mature residue
For the molecule B4, in data set [6], the “stoichiometry N” value was 4.
